# Reference: the supplement of paper PMC11316812
# ± gives the standard deviation of the averaged measurements.
# Key:
# MCF7 = experiment: percentage of EdU-negative (G0-arrested) nuclei per well, 72 h; higher = more G0 arrest; conditions: reference: sequence is the full UniProt precursor, the tested protein was the secreted form or ectodomain
# hTERT-HMEC = experiment: as above; conditions: reference: sequence is the full UniProt precursor, the tested protein was the secreted form or ectodomain
# [1] = protein concentration 0.0225 µM
# [2] = protein concentration 0.02179 µM
# [3] = protein concentration 0.2179 µM
# [4] = protein concentration 0.0215 µM
# 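Note: secreted proteins added to cultured cells, EdU pulse at the end, nuclei found by Hoechst imaging, EdU status from nuclear versus surrounding ring intensity ratio, PBS as neutral control.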
sequence,measurement,setting,value
MPPFLLLTCLFITGTSVSPVALDPCSAYISLNEPWRNTDHQLDESQGPPLCDNHVNGEWYHFTGMAGDAMPTFCIPENHCGTHAPVWLNGSHPLEGDGIVQRQACASFNGNCCLWNTTVEVKACPGGYYVYRLTKPSVCFHVYCGHFYDICDEDCHGSCSDTSECTCAPGTVLGPDRQTCFDENECEQNNGGCSEICVNLKNSYRCECGVGRVLRSDGKTCEDVEGCHNNNGGCSHSCLGSEKGYQCECPRGLVLSEDNHTCQVPVLCKSNAIEVNIPRELVGGLELFLTNTSCRGVSNGTHVNILFSLKTCGTVVDVVNDKIVASNLVTGLPKQTPGSSGDFIIRTSKLLIPVTCEFPRLYTISEGYVPNLRNSPLEIMSRNHGIFPFTLEIFKDNEFEEPYREALPTLKLRDSLYFGIEPVVHVSGLESLVESCFATPTSKIDEVLKYYLIRDGCVSDDSVKQYTSRDHLAKHFQVPVFKFVGKDHKEVFLHCRVLVCGVLDERSRCAQGCHRRMRRGAGGEDSAGLQGQTLTGGPIRIDWED [Q8WWZ8],percentage of EdU-negative,MCF7; protein concentration 0.007 µM,25.2 ± 1.8%
same,percentage of EdU-negative,MCF7; protein concentration 0.07 µM,27.3 ± 1.3%
same,percentage of EdU-negative,hTERT-HMEC; protein concentration 0.007 µM,5.2 ± 0.59%
same,percentage of EdU-negative,hTERT-HMEC; protein concentration 0.07 µM,5.67 ± 1.7%
MRPQGPAASPQRLRGLLLLLLLQLPAPSSASEIPKGKQKAQLRQREVVDLYNGMCLQGPAGVPGRDGSPGANGIPGTPGIPGRDGFKGEKGECLRESFEESWTPNYKQCSWSSLNYGIDLGKIAECTFTKMRSNSALRVLFSGSLRLKCRNACCQRWYFTFNGAECSGPLPIEAIIYLDQGSPEMNSTINIHRTSSVEGLCEGIGAGLVDVAIWVGTCSDYPKGDASTGWNSVSRIIIEELPK [Q96CG8],percentage of EdU-negative,MCF7; [1],25.9 ± 1.8%
same,percentage of EdU-negative,MCF7; protein concentration 0.225 µM,22.2 ± 3.5%
same,percentage of EdU-negative,hTERT-HMEC; [1],5.305 ± 0.023%
same,percentage of EdU-negative,hTERT-HMEC; protein concentration 0.225 µM,4.81 ± 1.6%
MDGWRRMPRWGLLLLLWGSCTFGLPTDTTTFKRIFLKRMPSIRESLKERGVDMARLGPEWSQPMKRLTLGNTTSSVILTNYMDTQYYGEIGIGTPPQTFKVVFDTGSSNVWVPSSKCSRLYTACVYHKLFDASDSSSYKHNGTELTLRYSTGTVSGFLSQDIITVGGITVTQMFGEVTEMPALPFMLAEFDGVVGMGFIEQAIGRVTPIFDNIISQGVLKEDVFSFYYNRDSENSQSLGGQIVLGGSDPQHYEGNFHYINLIKTGVWQIQMKGVSVGSSTLLCEDGCLALVDTGASYISGSTSSIEKLMEALGAKKRLFDYVVKCNEGPTLPDISFHLGGKEYTLTSADYVFQESYSSKKLCTLAIHAMDIPPPTGPTWALGATFIRKFYTEFDRRNNRIGFALAR,percentage of EdU-negative,MCF7; protein concentration 0.007 µM,27.1 ± 1.6%
same,percentage of EdU-negative,MCF7; [2],24.9 ± 1.8%
same,percentage of EdU-negative,MCF7; protein concentration 0.07 µM,28.5 ± 1.1%
same,percentage of EdU-negative,MCF7; [3],23.8 ± 2.5%
same,percentage of EdU-negative,hTERT-HMEC; protein concentration 0.007 µM,4.96 ± 0.18%
same,percentage of EdU-negative,hTERT-HMEC; [2],5 ± 0.54%
same,percentage of EdU-negative,hTERT-HMEC; protein concentration 0.07 µM,6.37 ± 0.25%
same,percentage of EdU-negative,hTERT-HMEC; [3],5.45 ± 0.35%
MRLPWELLVLQSFILCLADDSTLHGPIFIQEPSPVMFPLDSEEKKVKLNCEVKGNPKPHIRWKLNGTDVDTGMDFRYSVVEGSLLINNPNKTQDAGTYQCTATNSFGTIVSREAKLQFAYLDNFKTRTRSTVSVRRGQGMVLLCGPPPHSGELSYAWIFNEYPSYQDNRRFVSQETGNLYIAKVEKSDVGNYTCVVTNTVTNHKVLGPPTPLILRNDGVMGEYEPKIEVQFPETVPTAKGATVKLECFALGNPVPTIIWRRADGKPIARKARRHKSNGILEIPNFQQEDAGLYECVAENSRGKNVARGQLTFYAQPNWIQKINDIHVAMEENVFWECKANGRPKPTYKWLKNGEPLLTRDRIQIEQGTLNITIVNLSDAGMYQCLAENKHGVIFSNAELSVIAVGPDFSRTLLKRVTLVKVGGEVVIECKPKASPKPVYTWKKGRDILKENERITISEDGNLRIINVTKSDAGSYTCIATNHFGTASSTGNLVVKDPTRVMVPPSSMDVTVGESIVLPCQVTHDHSLDIVFTWSFNGHLIDFDRDGDHFERVGGQDSAGDLMIRNIQLKHAGKYVCMVQTSVDRLSAAADLIVRGPPGPPEAVTIDEITDTTAQLSWRPGPDNHSPITMYVIQARTPFSVGWQAVSTVPELIDGKTFTATVVGLNPWVEYEFRTVAANVIGIGEPSRPSEKRRTEEALPEVTPANVSGGGGSKSELVITWETVPEELQNGRGFGYVVAFRPYGKMIWMLTVLASADASRYVFRNESVHPFSPFEVKVGVFNNKGEGPFSPTTVVYSAEEEPTKPPASIFARSLSATDIEVFWASPLEKNRGRIQGYEVKYWRHEDKEENARKIRTVGNQTSTKITNLKGSVLYHLAVKAYNSAGTGPSSATVNVTTRKPPPSQPPGNIIWNSSDSKIILNWDQVKALDNESEVKGYKVLYRWNRQSSTSVIETNKTSVELSLPFDEDYIIEIKPFSDGGDGSSSEQIRIPKISNAYARGSGASTSNACTLSAISTIMISLTARSSL [Q8IWV2],percentage of EdU-negative,MCF7; protein concentration 0.018 µM,25.6 ± 0.8%
same,percentage of EdU-negative,MCF7; protein concentration 0.18 µM,27 ± 1.7%
same,percentage of EdU-negative,hTERT-HMEC; protein concentration 0.018 µM,5.06 ± 0.29%
same,percentage of EdU-negative,hTERT-HMEC; protein concentration 0.18 µM,8.55 ± 0.98%
MQCLLLLPFLLLGTVSALHLENDAPHLESLETQADLGQDLDSSKEQERDLALTEEVIQAEGEEVKASACQDNFEDEEAMESDPAALDKDFQCPREEDIVEVQGSPRCKICRYLLVRTPKTFAEAQNVCSRCYGGNLVSIHDFNFNYRIQCCTSTVNQAQVWIGGNLRGWFLWKRFCWTDGSHWNFAYWSPGQPGNGQGSCVALCTKGGYWRRAQCDKQLPFVCSF [Q9Y2Y8],percentage of EdU-negative,MCF7; [4],28.7 ± 1.2%
same,percentage of EdU-negative,MCF7; protein concentration 0.215 µM,32.1 ± 2.4%
same,percentage of EdU-negative,hTERT-HMEC; [4],5.28 ± 1.6%
same,percentage of EdU-negative,hTERT-HMEC; protein concentration 0.215 µM,8.49 ± 1.7%
